# Source: paper PMC8126837 (Proceedings of the National Academy of Sciences of the …, 2021)
# Residue numbers refer to the chain shown, from its start.
# B1: WNb 67 (VHH)
# VHH: QVQLQESGGGLVQPGGSLRLSCAVSGFTLDYYAIGWFRQAPGKEREGVSCISSSGGSTNYADSVKGRFTISRDNATNTVYLQMNSLKPEDTAVYYCAAIAATYYGGSYYYQCPHYGMDYWGKGTQVTVSS
# B2: WNb 2 (VHH)
# VHH: B1 VHH with S57N, N59K, I70A, T76K, V79F, G105S, Y110F, Y115D
# notes: source: expressed and purified
# B3: WNb 41 (VHH)
# VHH: B1 VHH with T76K, S85G, G105S, Y115D
# B4: WNb 36 (VHH)
# VHH: B1 VHH with S53N, S57N, N59K, I70T, R72V, T76Q, Q82L, K87E, G105S, S107T
# B5: WNb 23 (VHH)
# VHH: QVQLQESGGGLVQPGGSLRLSCAASGFTFKDYAMAWARQVPGKGLEWVSGIYSDGNTYYADSVKGRFTISRDNAKNTVYLRMNSLKPEDTAVYYCATERHPQGAADFGSWGQGTQVTVSS
# notes: as for B2
# B6: WNb 29 (VHH)
# VHH: QVQLQESGGGLVQPGGSLRLSCAFSGRTFSMYAMGWFRQAPGKEREFVAVIDDGGGRTYYADSVKGRFTISRDNAKNTVYLQMNSLKTEDTAVYCCAADMGFGYTIWADSYDYWGQGTQVTVSS
# B7: WNb 25 (VHH)
# VHH: QVQLQESGGGLVQAGGSLRLSCVTSGLTFSRAAMGWFRQAPEKEREFVASIHWRGLNIAYADSVKGRFTISRDDAKNTLYLQMNSLKTEDTAVYYCAAIPFYYFDHISPFSRAAAYWGQGTQVTVSS
# B8: WNb 21 (VHH)
# VHH: QVQLQESGGGLVQAGGSLTLTCAASERTFGRYVLAWFRQAPGKERELVARISRSTGSTFHADFVLGRFTISRDNAKNTVYLTMNNLKPEDTAVYYCAADKDGGLEYDYWGQGTQVTVSS
# notes: as for B2
# B9: WNb 19 (VHH)
# VHH: QVQLQESGGGLVQPGGSLRLSCAASGSMFSINVMGWYRQASGKQRELVAGITRDGATNYSDSVKGRFTISGDNAKNTVYLQMNSLKPEDTAVYYCNTNVDSVWGSRIDYFGQGTQVTVSS
# B10: WNb 26 (VHH)
# VHH: QVQLQESGGGLVQAGGSLRLSCVVSGRTFSPYAMGWFRQAPGKEREFVAGMSWSSGKYYADSVKGRFTISRDGAKNAVYLQMNSLKPEDTAVYYCGAGGEGYSRGRVNLQPDFWGQGTQVTVSS
# B11: WNb 53 (VHH)
# VHH: QVQLQESGGGLVQPGGSLRLSCAASGFTFSSYLMGWARQVPGKGLEWVAGIYSDGSTYYADSVKGRFIISRDNAKNTVYLQMNSLKPEDTAVYYCAKDRMEDSTWPERDFGSWGQGTQVTVSS
# B12: WNb 7 (VHH)
# VHH: B11 VHH with S25P, L33A, A37F, A49S, I68T, M100L, D102G, T104S
# B13: WNb 15 (VHH)
# VHH: B11 VHH with A37F, A49S, S56G, I68T, K97T, D102G, T104S
# B14: WNb 50 (VHH)
# VHH: B11 VHH with L33A, A37F, A49S, I68T, K97A, E101A, D102G, T104R
# B15: WNb 27 (VHH)
# VHH: QVQLQESGGGLVEAGDSLRLSCAASGRTFSRYAMGWFRQAPGKEREFVAAVSWNGGNTYYADSVKGRFTISRDNAKNTLYLQMNSLKPEDTARYYCVADRGESYYYNRDSEYEWWGQGTQVTVSS
# B16: WNb 24 (VHH)
# VHH: QVQLQESGGGLVQAGESLRLSCAASGRTFSRYAMGWFRQAPGKEREFVAAVSWNGGNTYYADSVKGRFTISRDNAKNTLYLQMNSLKPEDTAVYYCAAGGEPVVVIKLRNADEYDFLGQGTQVTVSS
# What was measured:
# [1] = biological target: T1, SARS-CoV-2 receptor-binding domain (RBD), wild type (SARS-CoV-2, UniProt P0DTC2, DyLight 488 (NHS ester, about 1.9 dye/protein) in the FRET assay only); assay: cell-based or functional assay
# [2] = biological target: T1, SARS-CoV-2 receptor-binding domain …; assay: BLI; settings: both partners purified
# [3] = biological target: T2, SARS-CoV receptor-binding domain (RBD) (SARS-CoV, UniProt P59594); assay: ELISA; settings: both partners purified
# T2 construct: source: recombinant, purified
# [4] = biological target: T1, SARS-CoV-2 receptor-binding domain …
Binder,other [1],binding result [4],also measured
B1,≤ 80 nM,,
B2,,,Kd [2]: < 500 pM
B3,≤ 80 nM,,
B4,,,Kd [2]: < 500 pM
B5,,,binding result [3]: binds
B6,,binds,
B7,,binds,
B8,,,binding result [3]: binds
B9,≤ 80 nM,,
B10,,binds,
B11,≤ 80 nM,,
B12,,,Kd [2]: < 500 pM
B13,,,Kd [2]: < 500 pM
B14,≤ 80 nM,,
B15,,binds,
B16,,binds,
